This assay addresses T1, von Willebrand factor, human plasmatic (human, UniProt P04275 764-2813).
T1 construct: von Willebrand factor, human, from plasma; multimeric glycoprotein; Multimer of disulfide-linked subunits; The results call the VWF of the ELISA recombinant, but the methods name plasmatic VWF; also called VWF; plasmatic VWF; source: bought: Calbiochem (human plasmatic VWF)
The assay can be described thus: ELISA; 96-well plates coated with 20 µg/ml AV; human plasmatic VWF added at 0.15, 0.5, 1.0 and 1.5 µg/ml; bound VWF detected colorimetrically with peroxidase-labelled anti-human VWF antibody; washing with calcium-free buffer. The note with it: both partners purified. In general terms: In an ELISA, binding on a coated surface is turned into a signal by an enzyme label.

T1 sequence (P04275 764-2813): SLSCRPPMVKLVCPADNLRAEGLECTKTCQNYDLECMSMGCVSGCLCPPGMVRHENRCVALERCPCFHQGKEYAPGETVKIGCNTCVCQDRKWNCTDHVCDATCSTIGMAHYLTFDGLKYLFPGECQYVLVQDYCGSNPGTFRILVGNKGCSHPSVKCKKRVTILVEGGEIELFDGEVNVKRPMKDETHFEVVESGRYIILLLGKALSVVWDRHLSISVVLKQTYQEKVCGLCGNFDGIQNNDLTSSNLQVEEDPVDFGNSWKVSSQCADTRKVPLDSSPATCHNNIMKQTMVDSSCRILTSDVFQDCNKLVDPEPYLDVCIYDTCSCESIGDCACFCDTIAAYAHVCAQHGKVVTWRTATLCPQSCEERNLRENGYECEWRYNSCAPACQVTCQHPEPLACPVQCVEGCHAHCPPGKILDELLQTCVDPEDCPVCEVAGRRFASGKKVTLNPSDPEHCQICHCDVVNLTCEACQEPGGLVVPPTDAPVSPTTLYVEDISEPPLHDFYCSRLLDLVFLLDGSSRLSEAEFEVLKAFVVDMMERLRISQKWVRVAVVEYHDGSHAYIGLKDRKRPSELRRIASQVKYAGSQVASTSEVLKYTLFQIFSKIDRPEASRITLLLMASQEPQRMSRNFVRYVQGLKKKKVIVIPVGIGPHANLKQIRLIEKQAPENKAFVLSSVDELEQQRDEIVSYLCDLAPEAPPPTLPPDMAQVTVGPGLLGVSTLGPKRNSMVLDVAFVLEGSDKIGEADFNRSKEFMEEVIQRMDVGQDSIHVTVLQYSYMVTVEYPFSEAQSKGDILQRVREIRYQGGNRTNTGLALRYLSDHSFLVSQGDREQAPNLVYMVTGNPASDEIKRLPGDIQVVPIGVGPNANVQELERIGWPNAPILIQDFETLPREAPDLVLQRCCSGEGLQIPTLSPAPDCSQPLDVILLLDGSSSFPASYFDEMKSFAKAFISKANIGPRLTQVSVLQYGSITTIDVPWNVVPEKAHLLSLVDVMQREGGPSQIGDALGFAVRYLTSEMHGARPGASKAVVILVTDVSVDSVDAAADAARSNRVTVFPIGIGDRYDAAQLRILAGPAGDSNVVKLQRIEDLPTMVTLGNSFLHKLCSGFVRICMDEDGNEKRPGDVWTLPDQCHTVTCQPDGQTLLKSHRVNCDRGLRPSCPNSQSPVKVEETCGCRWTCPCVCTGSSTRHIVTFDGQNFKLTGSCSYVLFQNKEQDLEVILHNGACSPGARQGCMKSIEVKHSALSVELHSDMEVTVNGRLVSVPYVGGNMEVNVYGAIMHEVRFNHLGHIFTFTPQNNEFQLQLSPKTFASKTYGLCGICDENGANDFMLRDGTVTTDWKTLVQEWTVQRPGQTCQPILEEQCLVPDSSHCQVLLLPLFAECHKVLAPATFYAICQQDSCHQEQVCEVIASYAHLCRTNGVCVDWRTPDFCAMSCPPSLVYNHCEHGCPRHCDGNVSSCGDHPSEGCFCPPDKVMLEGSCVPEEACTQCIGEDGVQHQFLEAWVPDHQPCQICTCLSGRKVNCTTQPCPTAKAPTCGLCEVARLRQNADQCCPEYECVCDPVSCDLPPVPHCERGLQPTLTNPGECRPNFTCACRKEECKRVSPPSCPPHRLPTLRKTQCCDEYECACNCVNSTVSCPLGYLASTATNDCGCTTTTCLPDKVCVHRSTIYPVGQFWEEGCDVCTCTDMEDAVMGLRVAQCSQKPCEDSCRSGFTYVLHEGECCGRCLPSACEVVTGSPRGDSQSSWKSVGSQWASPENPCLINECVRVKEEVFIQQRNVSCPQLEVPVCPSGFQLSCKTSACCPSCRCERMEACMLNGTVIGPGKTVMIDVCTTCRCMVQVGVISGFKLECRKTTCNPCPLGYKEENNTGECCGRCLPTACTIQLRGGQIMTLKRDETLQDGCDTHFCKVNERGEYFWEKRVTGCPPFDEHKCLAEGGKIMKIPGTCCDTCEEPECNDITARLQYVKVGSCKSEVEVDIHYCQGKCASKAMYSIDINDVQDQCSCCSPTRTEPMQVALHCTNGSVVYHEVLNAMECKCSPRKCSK

B1: Annexin V (natural protein, human, UniProt P08758 1-320, looked up)
chain: MAQVLRGTVTDFPGFDERADAETLRKAMKGLGTDEESILTLLTSRSNAQRQEISAAFKTLFGRDLLDDLKSELTGKFEKLIVALMKPSRLYDAYELKHALKGAGTNEKVLTEIIASRTPEELRAIKQVYEEEYGSSLEDDVVGDTSGYYQRMLVVLLQANRDPDAGIDEAQVEQDAQALFQAGELKWGTDEEKFITIFGTRSVSHLRKVFDKYMTISGFQIEETIDRETSGNLEQLLLAVVKSIRSIPAYLAETLYYAMKGAGTDDHTLIRVMVSRSEIDLFNIRKEFRKNFATSLYSMIKGDTSGDYKKALLLLCGEDD
notes: Annexin V (annexin A5), human, purified from placenta; The methods of the ELISA name AV purified from human placenta (Sigma-Aldrich), but the results call it recombinant AV; In the flow adhesion experiments purified recombinant AV (BD Biosciences, 10 µg/ml) was added, and the erythrocytes' own AV was also present; also called AV; source: bought: Sigma-Aldrich, purified AV from human placenta
B1: the binding result is reported as “binds”.

These data come from article PMC6053440, “Cellular stress induces erythrocyte assembly on intravascular von Willebrand factor strings and promotes microangiopathy” (Scientific Reports, 2018).
